Measurements: patent publication US7189515

T1: mature human interleukin-8 with C-terminal hexahistidine (human, UniProt P10145 21-99, biotin-XX (NHS ester labelling) in the affinity determination of Example 21; unlabelled in Examples 27 and 34)
T1 construct: mature; also called IL-8; IL8
T1 sequence: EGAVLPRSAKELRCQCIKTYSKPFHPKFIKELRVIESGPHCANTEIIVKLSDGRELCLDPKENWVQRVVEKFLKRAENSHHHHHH

B1: M1-21 (Fab)
heavy: QVQLVQSGGGVVQPGKSLRLSCAASGFTFSYYGMHWVRQVPGKGLEWVAAVWYDGSTTYSPDSVKGRFTISRDDSKNTLYLQMSSLRAEDTAVYYCARDRVGLFDYWGQGTLVTVSSASTKGPSVFPLAPSSKSTSGGTAALGCLVKDYFPEPVTVSWNSGALTSGVHTFPAVLQSSGLYSLSSVVTVPSSSLGTQTYICNVNHKPSNTKVDKKAEPKSHHHHHH
light: not shown
notes: also called monoclonal antibody M1-21; M1_21H
B2: M1-10 (Fab)
heavy: QVQLVQSGGGLVHPGGSLRLSCEGSGFIFRNHPIHWVRQAPGKGLEWVSVSGIGGDTYYADSVKGRFSISRDNAKNSLYLQMNSLRAEDMAVYYCAREYYYGSGSYRVDYYYYGMDVWGQGTTVTVSSASTKGPSVFPLAPSSKSTSGGTAALGCLVKDYFPEPVTVSWNSGALTSGVHTFPAVLQSSGLYSLSSVVTVPSSSLGTQTYICNVNHKPSNTKVDKKAEPKSHHHHHH
light: not shown
notes: also called monoclonal human antibody M1-10; M1_10H

Target: T1, mature human interleukin-8 with …
Assay: BIACORE two-site assay, blank-subtracted; IL-8 held by primary antibody (competitor) M1-10
Protocol: A BIACORE® 3000 instrument (Biacore AB, Uppsala, Sweden) was used to measure the epitope binding.
Each antibody was diluted to 100 µg/mL and the IL-8 was diluted to 1 µM in 10 mM N-2-hydroxyethylpiperazine-N'-2-ethane-sulfonic acid, 150 mM sodium chloride, 3 mM EDTA, 0.005% polysorbate 20, pH 7.4 (HBS-EP, Biacore AB, Uppsala, Sweden). […] IL-8 (10 µL) was then bound to the primary antibody in all 4 channels. One secondary antibody (10 µL) was passed through one channel each. The resonance units of the secondary antibodies were measured 20 seconds after the injection was over. Blank resonance unit values for each primary/secondary antibody combination were obtained by injecting HBS-EP instead of IL-8 and these were subtracted from the resonance units measured for the corresponding primary/secondary antibody pairing that was contacted with IL-8. Blocking antibody injections were not done.

Row | Binder | Resonance Units [RU]
1 | B1 | 706
2 | B2 | -17
